# In a protein production outcome set (Wang et al. 2014):
# Experiment: label from the status in PepcDB records
row,Sequence,protein production
1,MALCLNPDCGQPNNDDANSSCATCGSPLLLRDRYRVVKAIGQGGFGATYLGQDLQLPGEPLCVIKQLLPQVQDPEIMLMARELFRREAKTLGRIGSHPQVPTLLDYFEAPEGFYLVQEYIRGKTLEQEVREQGVYSETATKQFLSELLPLLQYLHNQGVIHRDIKPANLLRRDIDRRLVLIDFGAVKDQVSQIQGGSGLTALTSFSVGTRGYAPPEQLAMRPVYSSDLYSLGVTCLFLMTGKGPQDLDYNPVTGELLWRNSVQVSDALATVLGKMLAASVRYRYQRAEQVMTALDLQPYHDSLIQGLSALPPGAPPIKPSSGRTGSGYPSPQERQAEAIRARRRDRSGNRPEQLADAQQIAAWTGGTSNTSGNNSAGRLSLNARDILATYQRGRRDFSQQPLNRIDLSESQLPSVNFQGAQLKESLFVAAQLERADFGQANLHRANLRRANLHQAYFGNADLSFANLQKADLSDAILSNANLRGTNLCGANLRGAKLTPVQLKMAKTNWWTILPDGRRGRLF,failed
2,MALDSPVGRRLGLVLQSRSNGVGPDQLFGDSELDHRAVCVIGEKGAERLAGPERGVVGRDSLCCVHTRPYGLWPLHWPRPAAATTLSRPAILTPRTATRTCMTEATGIVGEFLTLKEGTDADLLAMQCGDFYEFFAEDAEIVADELDLKVSQKSSHGSSYPMAGVPVDDLTPYVSALVERGYRVAIADQHETENGHAREITRVVTPGTHLETGDESAQYLAAVVREASRDSGDTYGIAATDVTTGQFQVTQLDDADAGEALTELYTFGPAEILPGPELRNDDEFLDRLRERTDAALTLHDSASFEPGRASHTVREQFGSETVDSVGIGDQNVAVRAAGAVLSYVEDTGVGTLAAVTRLQAYGERDHVDLDATTQRNLELTETMQGDSSGSLFDTIDHTVTAAGGRLLQQWLQRPRRNRAELQRRQSCVAALSEAAMARERIRETLSDAYDLERLAARATSGSADARDLRAVQETLALLGQVADAVTETERLAESPLADALDGADREAADSLAAELDSALVADPPGTVRQGGLFKRGHDDDLDEIIDEHEAALEWLETLPDREKERTGITHLSVDRNKTDGYYIQVGKSETDAVPEKYQHIKTLKNSKRYTTPELDEKERDVLRLEERRHDMEYEHFQRLRARVAEHATLLQDVGRTLAELDAFASLAVHAVENDWARPAVVDGNELSIEAGRHPVVEQTTEFVPNDLYMDDDRQFLIVTGPNMSGKSTYMRQAALITLLAQVGSFVPARSATVGLVDGIFTRVGALDELAQGRSTFMVEMQELSNILHSATEESLVILDEVGRGTATFDGISIAWAATEYIVNSIQSKTLFATHYHELTALGEELPTVENVHVAVDGEPRSAGSDGDVTFLRTVRDGPTDRSYGVHVADLAGVPEPVVDRSQAVLDRLRDDKAIEIRGSEQNDGGTTQAVFDLDSGQFRDGAAQSGGAAAGSTAEPVATDGDPEHAPGEAAAEGPKGDERAASLDSETEAVLSELTELDVNETPPVELMAKVQEWQAELDDE,failed
3,MALGPEGAADLQRQLTEWTVFTAHCWQARSPQTEVLIATSGGTSEAWQQWLGAVEVQPQAEGDLGDRLHQAFQDSWQVGCDRTVIIGSDCPQIEPHHLDEAFAVLQQADVVIGPASDGGYWLIGLSQPQPQLFQNIDWGSDRVLVQTLEAAQVADLQVAQLESLSDLDRPEDLNLWQPQPQLSVIITTLNEAANLPQTLALIGDAPVETLVVDGGSQDATVAIAQAWGAKVIHSPAGRGRQFNQGAAAAHGNILLFLHGDTRLPPRFWEHVLQTLQPPQVVAGAFQLQIDSPDWRLRWIERGVRWRSHWLQQPYGDQALFLSRDRWRAIGGFSTGPLLEDYRFVRQLRRQGTIAIASAAVMTSARRWQRRGVLQTTLLNQLILLAHHCGVSDQQLARWYRLEHHHHHH,not failed
4,MALKATIYKATVNVADLDRNQFLDASLTLARHPSETQERMMLRLLAWLKYADERLQFTRGLCADDEPEAWLRNDHLGIDLWIELGLPDERRIKKACTQAAEVALFTYNSRAAQIWWQQNQSKCVQFANLSVWYLDDEQLAKVSAFADRTMTLQATIQDGVIWLSDDKNNLEVNLTAWQQPS,not failed
5,MALKDTGSGGSTILPISEMVSASSSPGAPLAAAPGPCAPSPFPEVVELNVGGQVYVTKHSTLLSVPDSTLASMFSPSSPRGGARRRGDLPRDSRARFFIDRDGFLFRYVLDYLRDKQLALPEHFPEKERLLREAEFFQLTDLVKLLSPKVTKQNSLNDECCQSDLEDNVSQGSSDALLLRGAAAGAPSGSGAHGVSGVVGGGSAPDKRSGFLTLGYRGSYTTVRDNQADAKFRRVARIMVCGRIALAKEVFGDTLNESRDPDRQPEKYTSRFYLKFTYLEQAFDRLSEAGFHMVACNSSGTAAFVNQYRDDKIWSSYTEYIFFRPPQKIVSPKQEHEDRKRDKVTDKGSESGTSCNELSTSSCDSHSEASTPQDNPANTQQAAAHQPNTLTLDRPSRKAPVQWMPPPDKRRNSELFQSLISKSRETNLSKKKVCEKLSVEEEMKKCIQDFKKIHIPDCFPERKRQWQSELLQKYGL,failed
6,MALLAIDLDMFGHGSAGQVLGRTDVDRVEYQYSTKSLLSIYIFYEETCGFFIDEEKKVFVVFELDESQAYKYAYIIGENICLKKLDLGEVRTFSCPIVCSSSYVPS,failed
7,MALMSDKFLSIVIPAYNSEKYIEKNLMFLSRQTSNNFEVIVVDDGSTDNTCEVSEACLENFKINHRVIRCEENRGQSVARNIGINYSRGKYILFLDSDDFAENNLVQILERNMFNEPDIVFFDYKRIKEGDSVNVNIAQNFEFGKIKSGEEVFNAYKDNKIRLWTGSLVYNKEFLNKNKLRFLEGAHGAEDLNFIFKALLSSKKVRGIEDSLVFYCQRGDSLTNNPDIYKNITVVESMEDVAKFIDENKLDKKLKEAIEKEFTCEHIMYQILGYLNSETKKDTLSVLKNKNVKKYLKKATIKTNRYGRSMYTYMKMAAYFPNLFIKTYLKNTGKLEHHHHHH,not failed
8,MALNTNQLFAYLNRGDIAEFKFSPLFTTLFFPNVATFSTQNIMLDTLDIEEVTMSAFCSPMVGSQVQRDKGYETSTIKPGYMKPKHEIDPTKTIMRMAGEDPAQLNDPTYRRMRLITGNMRRQINAIKARVEWLAVNAVTTGKNIIEGEGIERYEIDWKIPEKNIIEQADGKKWSEQDKETHYPIYDIELYADQAGCPANVMIMGAEVWRTLRSFKKFRELYDLSRGSESAAELACKNLGEVVSFKGYLGDLALIVYSGKYTDSDGTEKYFLEPDLLVLGNTNNKGLVAYGAIMDQEAVRTGATQNMFYPKNWIEDGDPAIEYVQTHSAPQPVPADIRKFVTVKIA,not failed
9,MALPDRRAEGVAASLAGALIPAFLAAQDRIIEMVPFRTSATLFAFVLTIVFLAFALRVLFSFRDVRSAAVETALFATGFLYVPLLLTHLAWLRALPDGVGWIFLVLVIVMSGDTAAYYVGSNLGRRKLYPSVSPNKSVEGAIGGLLGSLAGTFVARLTFFPGLTVLDCIATALLLGVLGQVGDLFESLLKRSFGVKDSGTIVPGHGGILDRLDSILFAVPAAYYYALFVFMNR,failed
10,MALPPILRDRLRLPVIASPLFIISNPDLVIAQCKAGIVGSFPSLNARPLSQLDEWLARITEELAAWDKANPDMPSAPFAVNQIVHKTNNRLEDDIAMCVKYKVPLVITSLGAREDVNQAIHSYGGITLHDVITDRFARKAIEKGADGLIPVAAGAGGHAGTLSPFALIQEIRQWFDGPVALSGSIASGRSILAAQAMGADLAYVGSAFIATKEANAVEGYKQMIVDSKADDILYSNLFTGVHGNYLRPSVIKAGLDPENLPESDPSKMNFGSGGNQDAKAWRDIWGCGQGIGAIDNVLTAGELVAKFAAEYEQAKAELAAKTALTAGKHLAFAAE,failed
11,MALPPYDPNFKFAFSLGTIAKHQDYDESASAAVVALDLISSARFALKLDSVYTEYSAKYVVDNAAGSHSGRKLTVKDCLEFALNKGGIPKAEDWPRLGSVITPPSSYKPDLVSMKGQVIEPQTIEEACDMVVDQPVGAKLHVFKPHIELQQDASAITGIYCGTSGEPASYVGLRDAIIVGVEKIQGKSIGTVKVWYKKFIFLKVAMSRWFQLYSPDGTHTGIKRTDYLVDFCVPRLSMD,failed
12,MALQLGPHELQHVFSFLEARDLLRAAQVNKVWNEVSMTNELWRQLCLRRWAPCKALPVVLGTQTWRQYYFCRSELEFRVKSGRPQDFICKAISGHTGTIDQLAYVSPHEYRFDEKARSVVCTVSSDCTVRAWDLQEGTEMWSSPVQPAPLVNLVAYPQLQLVVTVDTQGLIRGWNTDTGSEWAFFSLPTSCSSMEACDHPEGSFLLVACAEGTLYTMTVPQLQVVFRVATFPHTPVSLMCSPDKQWVLVSAQDSDLGPKVFYTQPLLHPSEDRLPASATLPIRLSSRACWAPDEAARLMVTHRDDSGVHLVITTFELKANKSRDRVSILAQQLASFPLPDTMTPHLMQGHGSQVILLTSGSELVLFNIHGLQLMAFQDHQKPITSVWVDPDRVITAALDLSLCVYVWNKENTSPILKSCYHLLGGSHRWASGFTHVKSDSRSIAGVEARSTGTSILRSYCYKVQLG,failed
13,MALSIIENGKKLESTIDFSNFLKEFKKYRLRVLLVVLAITLAAFPLINGMTPQYTATATIVLKAKTDNSTPIDQVEDFDATQAEYYPTQAELLQSKTVIEAAAKKLDLINSPIFEDEDKDENIPQSEEEHLYSIVKAIKKKLSISPVRFSQLVHVSYESKDSDMSALVANAVVESYIEQQEQRKIEKTQQAQQWNNTRMSELKEKIKQQKADIDKFLSDNGLLTYQGVDGFETEQLALVNDRLATAKEKRITAKANYNTISEALGYPLEDVATLPSISNHAQLQDLRIALIQAKRTLFDLQKMYGPKNRQILEANAQIKAIELQTTALLKELKTGLYKEYQAAIERENKYRALLAEQKKDFTALAAKKDTYNTMKADLDKTQELYEKIFLRSKEQELTVLYREPVARLLDAATPPHKPSKPNKALLLIMVCAMTIIFSLLFIIIKSALNKSINNLTQVNTRLGLQGIGELISLNYIDELALFTKNFFKNSYSAETVHAIRTTILLDDKPWPIIGLTSTESTESNELNSYLLAYSFSQDRSTLLIDLDYRKEISLTEAILMQKENEIDAKKAENSDDFETVPTSTVMGVAEALEQKHPINDCLIKIENNLTFLPRGTLTETPLITLASEELGRQLKELSKQFEQVIVNLPAMTESKDAQLIARHLSGVIYTVQAGELSANHILANIEKVKQVQTPIMGVILTDVQNDELETEEAKQQLIHQNDDILG,failed
14,MALTEEEKSINIVDLFIYLIAHWKWFVLSILLFGGYFWYSYCETPFVYSRTAIVMIKTPANSRSAMQLNNADFIGQVNVASEILQFKSKELMRKVIDRLHADVSYMVRDGLRPRELYTDSPVRVAFLEAGLDEVCSLSVIPKNKQQVELADFSLDELEQRKTVNLNDTVDTPLGKLIVFTAENYSESYFDRPIKVTSKSREGMVAFWLSNLTIRQMSGDAALLSMTMNDLSPTRAADILDMLITVYNEEAIKDKNRISVNTAEFIKERLQIIEHELGSVETDIEDLKRANNGVDINTVAGMYIQDSRQYESSIKELDTQLQLVSFIKQYLQDSNKDDELIPSNIGLSDLSIESQISRYNETLLRRNRLVSGSSSNNPVVQELNRIMQTMKQNIYMAVDNLSKSLRLKKQDYMRQESHVRQKVQAVPGKQREMLSIERQQKVKESLYIFLLNKREENALSQAMVDNNARILDPVSGSNLPISPNKYKKMILGVGCGIIVPSVILLLILMLDTRVHNRKEVEAVVSAPFLADIPQTAKASVDAHEVVVRARGLDPLSEAFRILRTNLGFMLSQAQDHKIITLTSFNIGAGKTFVSVNLAASLVQTKKKVLILDLDLRKGKMSEMAHSKHVKGVAHYLSNPSIVVDDLILRDAFGEGLDLIPIGVIAPNPTELLLSRRLDELMDRLRELYDYIIVDNVPIGLVADASVVNRISDLTLFIVRVGKIDRRQLPELERLYQEHKLTNMAVVLNGTKKGSSGYGYGYGYGQGYGYKNAEKKKGLFGRKKKKSRK,failed
15,MALTSGQVGNLLNAFDSHGGHFQTQMAFRLMWLTLTRANESVQARWDEFDLANGLWKIPKERMKARREHLLPLPRQAVSILTTMQPITGQSTYVFPNRDDRHKPMSDAAFRQALKKLGWATIYSPHGTRTTGSTRLNEMGLEHHHHHH,failed
